For series [1], the target named is α-synuclein (αSyn), wild type (human, UniProt P37840 1-140). The experiment in a line: ITC. The settings on record: both partners purified.
The series “dynamic light scattering” deals with the molecule itself. The experiment in a line: dynamic light scattering.

Several values for one entry are separate records, joined by “and”; a condition that tells them apart may be missing. Equal values may be shown once.

B1: Spike 194–203 (S194), fibrillogenic fragment of the Spike protein of SARS-CoV-2 (peptide)
peptide: FKNIDGYFKI
notes: also called mS194 (monomer); fS194 (fibrils)
In the case of B1, in series [1], the dH was -200 kcal/mol and -150 kcal/mol. For the same molecule, the binding result in “dynamic light scattering” is listed as “binds”.

Values taken from article PMC12412103, “An Amyloidogenic Fragment of the Spike Protein from SARS-CoV‑2 Virus Stimulates the Aggregation and Toxicity of Parkinson’s Disease Protein Alpha-Synuclein” (ACS Chemical Neuroscience, 2025).
